T1: TfR2 (transferrin receptor 2) (UniProt Q9UP52 105-801, limits assumed)
T1 sequence (looked up): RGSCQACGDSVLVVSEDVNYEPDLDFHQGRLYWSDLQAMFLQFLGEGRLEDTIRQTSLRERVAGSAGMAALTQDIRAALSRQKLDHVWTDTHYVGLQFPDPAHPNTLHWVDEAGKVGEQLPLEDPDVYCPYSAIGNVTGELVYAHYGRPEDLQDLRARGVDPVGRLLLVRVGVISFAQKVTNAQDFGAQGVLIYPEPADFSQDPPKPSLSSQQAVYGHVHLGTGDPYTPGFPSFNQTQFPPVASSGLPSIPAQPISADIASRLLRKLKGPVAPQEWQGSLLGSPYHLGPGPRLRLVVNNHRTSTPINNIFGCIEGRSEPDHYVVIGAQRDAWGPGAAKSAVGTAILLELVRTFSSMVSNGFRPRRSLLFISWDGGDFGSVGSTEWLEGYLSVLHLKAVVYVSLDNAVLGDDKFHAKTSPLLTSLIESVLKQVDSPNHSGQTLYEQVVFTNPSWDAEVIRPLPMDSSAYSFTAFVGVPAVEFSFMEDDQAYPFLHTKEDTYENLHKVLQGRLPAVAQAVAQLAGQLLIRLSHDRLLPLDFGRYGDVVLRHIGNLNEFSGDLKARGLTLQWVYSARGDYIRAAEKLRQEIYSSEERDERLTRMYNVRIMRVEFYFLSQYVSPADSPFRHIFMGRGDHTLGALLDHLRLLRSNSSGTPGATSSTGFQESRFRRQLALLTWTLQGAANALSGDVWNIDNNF


Assays:
[1] = molecular target: T1, TfR2 (transferrin receptor 2); assay: A450 plate assay on TfR2 (method not described in the text)
[2] = molecular target: T2, hTfR (human transferrin receptor, source and construct not stated) (human, UniProt P02786 89-760, limits assumed); assay: ELISA; ratio of the Kd on HFE-captured hTfR to the Kd on directly coated hTfR
T2 sequence (P02786 89-760 limits assumed): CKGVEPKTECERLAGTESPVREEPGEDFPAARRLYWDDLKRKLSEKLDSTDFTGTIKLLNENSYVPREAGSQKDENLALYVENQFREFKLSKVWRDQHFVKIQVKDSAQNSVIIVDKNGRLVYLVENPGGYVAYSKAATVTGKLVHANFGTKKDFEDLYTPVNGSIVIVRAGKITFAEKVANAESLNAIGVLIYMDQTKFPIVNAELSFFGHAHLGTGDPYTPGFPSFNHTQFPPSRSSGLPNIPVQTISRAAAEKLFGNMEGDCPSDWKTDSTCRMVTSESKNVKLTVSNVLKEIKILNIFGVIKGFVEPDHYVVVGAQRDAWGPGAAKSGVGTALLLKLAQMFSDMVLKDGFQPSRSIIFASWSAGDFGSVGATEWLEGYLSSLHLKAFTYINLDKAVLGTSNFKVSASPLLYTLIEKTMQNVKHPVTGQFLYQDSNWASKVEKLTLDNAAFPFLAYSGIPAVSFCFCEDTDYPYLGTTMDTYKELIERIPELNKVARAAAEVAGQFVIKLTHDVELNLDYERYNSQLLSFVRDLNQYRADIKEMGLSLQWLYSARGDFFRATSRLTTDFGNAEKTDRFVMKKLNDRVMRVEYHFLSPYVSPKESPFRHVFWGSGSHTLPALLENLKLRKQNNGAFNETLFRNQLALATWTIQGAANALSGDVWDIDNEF

[3] = molecular target: T2, hTfR (human transferrin receptor, …); assay: ELISA, biotinylated antibody on hTfR captured by plate-coated human holo-transferrin (Tf+TfR); fit: specific binding with Hill slope
Experimental: (§1) Antibodies were biotinylated using 50 fold molar excess of EZ-Link No weigh NHS-Biotin (Thermo Scientific A39256) following manufacturer's instructions. Half-well high-bind plates (Costar #3690) were coated with 500 ng/mL purified human holo-transferrin (R&D Systems 2914-HT) in PBS at 4° C. overnight. For comparison, plates were coated directly with hTfR. Plates were washed four times with 100 μL of Tris buffered saline+Tween (20×TBST, Cell Signaling 9997S). 100 μL of Superblock (ThermoFisher PI-37535) was added to each well and incubated for 1 hour at room temperature. The wash step was repeated before the addition of the hTfR (200 ng/mL in 25 μl) to the transferrin plates, or Superblock to the hTfR plates, and incubated for 30 minutes. Biotinylated antibodies were diluted to 20 nM for the high concentration and added to the plates with 3-fold serial dilution. 25 μl/well was added to the 25 μl already in the plate. Plates were incubated for 1 hour, and wash step was repeated. Streptavidin-HRP (R&D Systems DY998) was added following recommended dilution on the package insert, and a final wash step was done. Binding was measured by the addition of 50 μL of 1-Step™ Ultra TMB-ELISA (ThermoFisher, 34028), incubated for 5 minutes, and the reaction was stopped with the addition of 25 μL of Stop Solution 2N sulfuric Acid (R&D Systems DY994). Absorbance was measured at 450 nm, with reference wavelength 570 nm subtracted. Binding constants were determined using GraphPad Prism Specific Binding with Hill Slope. Change in antibody binding constants in the presence versus absense of transferrin is considered relative to the commercially available antibody which is known to have an overlapping epitope with transferrin (AF2474, R&D Systems).

[4] = molecular target: T2, hTfR (human transferrin receptor, …); assay: SPR (BioRad ProteOn XPR36), mAb captured on Protein A, hTfR as analyte, 25 C
Experimental: The binding kinetics of nine exemplary humanized anti-TfR antibodies and the parent chimeric antibody were characterized. Studies were run on a BioRad ProteOn XPR36 optical biosensor using a GLM sensor chip coated with Protein A for mAb capture. Running buffer included 10 mM EPES, 150 mM NaCl, pH 7.4 with 0.05 tween-20 with 0.2 mg/ml BSA. Data were collected at 25 degrees C. All mAbs were diluted into running buffer to 2 ug/ml based on the stock concentration provided. Each was then captured for 40 seconds over a Protein A surface.
hTfR (100 ug) was dissolved into […] of water to yield a 4.3 uM stock concentration. hTfR was dilted to 43 nM as the highest concentration and tested in a 3 fold dilution series. hTfR was injected at 200 ul/min for 2 minutes followed by a one-hour dissociation phase.

[5] = molecular target: T3, recombinant cyno transferrin receptor protein (Sino Biological 90253-C07H) (cyno, UniProt H9EXL1 89-760 (rhesus entry)); assay: ELISA on plate-coated recombinant cyno TfR1 (CD71); fit: specific binding with Hill slope
T3 construct: Bought protein coated on ELISA plates; also called recombinant cyno TfR1; cynoTfR1
T3 sequence (chain, as listed by the source C07H C07H): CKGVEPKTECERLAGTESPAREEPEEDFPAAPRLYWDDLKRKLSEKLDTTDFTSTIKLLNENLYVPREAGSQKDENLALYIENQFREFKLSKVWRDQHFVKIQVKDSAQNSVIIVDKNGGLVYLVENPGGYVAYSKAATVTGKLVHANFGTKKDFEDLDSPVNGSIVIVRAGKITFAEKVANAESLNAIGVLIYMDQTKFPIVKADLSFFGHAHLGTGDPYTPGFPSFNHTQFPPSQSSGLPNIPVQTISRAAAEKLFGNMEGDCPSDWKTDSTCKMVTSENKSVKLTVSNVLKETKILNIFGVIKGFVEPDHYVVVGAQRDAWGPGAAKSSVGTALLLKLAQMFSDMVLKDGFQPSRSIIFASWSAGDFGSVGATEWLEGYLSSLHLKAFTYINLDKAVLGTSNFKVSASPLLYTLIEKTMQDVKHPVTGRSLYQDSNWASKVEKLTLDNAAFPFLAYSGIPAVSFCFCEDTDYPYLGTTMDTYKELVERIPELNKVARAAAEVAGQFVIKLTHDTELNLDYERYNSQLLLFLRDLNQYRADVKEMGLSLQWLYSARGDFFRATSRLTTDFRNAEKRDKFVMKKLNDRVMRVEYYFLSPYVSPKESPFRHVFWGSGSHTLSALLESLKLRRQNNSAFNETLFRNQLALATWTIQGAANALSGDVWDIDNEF
Experimental: (§2) Half-well high-binding 96-well plates (Costar #3690) were coated with recombinant human transferrin receptor protein (Sino Biological 11020-H07H) or recombinant cyno transferrin receptor protein (Sino Biological 90253-C07H) at 1 ng/μL in PBS (Gibco 14190) and incubated overnight at 4° C. Plates were washed four times with 100 μL of Tris buffered saline+Tween (20×TBST, Cell Signaling 9997S). 100 μL of Superblock (ThermoFisher PI-37535) was added to each well and incubated for 1 hour at room temperature. The wash step was repeated before the addition of the samples. Samples were added at concentrations up to 10 nM, 50 μL/well. Plates were incubated for another hour at room temp and wash step repeated. Secondary antibody (Peroxidase AffiniPure Goat Anti-Human IgG, Fcγ Fragment Specific, Jackson Immunoresearch, 109-035-098) was diluted 1:5000 in Superblock and 50 μL/well added. Plates were incubated for 1 hour at room temperature and washed one more time. Binding was measured by the addition of 50 μL of 1-Step™ Ultra TMB-ELISA (ThermoFisher, 34028), incubated for 5 minutes, and the reaction was stopped with the addition of 25 μL of Stop Solution 2N sulfuric Acid (R&D Systems DY994). Absorbance was measured at 450 nm, with reference wavelength 570 nm subtracted. Binding constants were determined using GraphPad Prism Specific Binding with Hill Slope.

[6] = molecular target: T2, hTfR (human transferrin receptor, …); assay: ELISA; ratio of the Kd on transferrin-captured hTfR to the Kd on directly coated hTfR
Experimental: as §1

[7] = molecular target: T4, recombinant human transferrin receptor protein (Sino Biological 11020-H07H) (human, UniProt P02786 89-760); assay: ELISA on plate-coated recombinant human TfR1 (CD71); fit: specific binding with Hill slope
T4 construct: Bought protein coated on ELISA plates; also called recombinant human TfR1; human TfR1
T4 sequence (P02786 89-760 limits assumed): as the sequence (P02786 89-760 limits assumed) above
Experimental: as §2

[8] = molecular target: T2, hTfR (human transferrin receptor, …); assay: ELISA, biotinylated antibody on hTfR captured by plate-coated HFE (HFE+TfR); fit: specific binding with Hill slope

Row | Binder | binding result [1] | Kd(HFE+TfR)/Kd(TfR) [2] | Bmax [3] [A450] | Kd [3] [pM] | h [3] | Kd [4] [pM] | koff [4] [s⁻¹] | kon [4] [M⁻¹ s⁻¹] | Bmax [5] [% max binding] | Kd [5] [pM] | h [5] | Kd(Tf+TfR)/Kd(TfR) [6] | Bmax [7] [% max binding] | Kd [7] [pM] | h [7] | Bmax [8] [A450] | Kd [8] [pM] | h [8]
1 | 13E4-Variant 2i (antibody, human IgG1, kappa, L234A L235A, Humanized hIgG1 with Fc mutations; also called hIgG1 TfR-Var2i) heavy: not shown light: DIQMTQSPSSLSASVGDRVTITCRTSENIYNNLAWYQQKPGKSPKLLIYAATNLADGVPSRFSGSGSGTDYTLTISSLQPEDFATYYCQHFWGTPLTFGGGTKVEIKRTVAAPSVFIFPPSDEQLKSGTASVVCLLNNFYPREAKVQWKVDNALQSGNSQESVTEQDSKDSTYSLSSTLTLSKADYEKHKVYACEVTHQGLSSPVTKSFNRGEC | no binding (tested: 1000 nM) | 11.1 | 3.48 | 67.8 | 1.49 | 0.43 | 3.9e-07 | 913000 | 93.1 | 12 | 1.56 | 2.8 | 94.2 | 8.18 | 1.35 | 3 | 273 | 1.63
2 | 13E4-Variant 2ii (antibody, human IgG1, kappa, L234A L235A, Humanized hIgG1 with Fc mutations; also called hIgG1 TfR-Var2ii) heavy: QVQLVQSGAEVKKPGASVKVSCKASGYTFTNYWMHWVRQAPGQGLEWIGEINPINGRSNYAEKFQGRVTLTVDTSSSTAYMELSRLRSDDTAVYYCARGTRAMHYWGQGTLVTVSSASTKGPSVFPLAPSSKSTSGGTAALGCLVKDYFPEPVTVSWNSGALTSGVHTFPAVLQSSGLYSLSSVVTVPSSSLGTQTYICNVNHKPSNTKVDKRVEPKSCDKTHTCPPCPAPEAAGGPSVFLFPPKPKDTLMISRTPEVTCVVVDVSHEDPEVKFNWYVDGVEVHNAKTKPREEQYNSTYRVVSVLTVLHQDWLNGKEYKCGVSNKALPAPIEKTISKAKGQPREPQVYTLPPSREEMTKNQVSLTCLVKGFYPSDIAVEWESNGQPENNYKTTPPVLDSDGSFFLYSKLTVDKSRWQQGNVFSCSVMHEALHNHYTQKSLSLSPG light: DIQMTQSPSSLSASVGDRVTITCRTSENIYNNLAWYQQKPGKSPKLLIYAATNLADGVPSRFSGSGSGTDYTLTISSLQPEDFATYYCQHFWGTPLTFGGGTKVEIKRTVAAPSVFIFPPSDEQLKSGTASVVCLLNNFYPREAKVQWKVDNALQSGNSQESVTEQDSKDSTYSLSSTLTLSKADYEKHKVYACEVTHQGLSSPVTKSFNRGEC | no binding (tested: 1000 nM) | 9.9 | 3.53 | 57.8 | 1.45 | 0.49 | 4.3e-07 | 880000 | 94.2 | 12.7 | 1.58 | 2.5 | 92.9 | 9.64 | 1.43 | 3.15 | 227 | 1.64

Now those with a lower Kd [3], led by results:

Row | binding result [1] | Kd(HFE+TfR)/Kd(TfR) [2] | Bmax [3] [A450] | Kd [3] [pM] | h [3] | Kd [4] [pM] | koff [4] [s⁻¹] | kon [4] [M⁻¹ s⁻¹] | Bmax [5] [% max binding] | Kd [5] [pM] | h [5] | Kd(Tf+TfR)/Kd(TfR) [6] | Bmax [7] [% max binding] | Kd [7] [pM] | h [7] | Bmax [8] [A450] | Kd [8] [pM] | h [8] | Binder
3 | no binding (tested: 1000 nM) | 13.6 | 3.53 | 56 | 1.45 | 1.21 | 1.02e-06 | 843000 | 95 | 11 | 1.51 | 2.2 | 95.7 | 9.73 | 1.22 | 2.79 | 341 | 1.37 | 13E4-Variant 9i (antibody, human IgG1, kappa, L234A L235A, Humanized hIgG1 with Fc mutations; also called hIgG1 TfR-Var9i) heavy: not shown light: DIQMTQSPSSLSASVGDRVTITCRTSENIYNNLAWYQQKPGKAPKLLIYAATNLAEGVPSRFSGSGSGTDYTLTISSLQPEDFATYYCQHFWGTPLTFGGGTKVEIKRTVAAPSVFIFPPSDEQLKSGTASVVCLLNNFYPREAKVQWKVDNALQSGNSQESVTEQDSKDSTYSLSSTLTLSKADYEKHKVYACEVTHQGLSSPVTKSFNRGEC
4 | no binding (tested: 1000 nM) | 11.9 | 3.47 | 52.2 | 1.61 | 0.95 | 8.2e-07 | 862000 | 94.3 | 9.2 | 1.35 | 2.1 | 95 | 9.58 | 1.2 | 2.66 | 289 | 1.26 | 13E4-Variant 2iii (antibody, human IgG1, kappa, L234A L235A, Humanized hIgG1 with Fc mutations; also called hIgG1 TfR-Var2iii) heavy: QVQLVQSGAEVKKPGASVKVSCKASGYTFTNYWMHWVRQAPGQGLEWIGEINPINGRSNYAEKFQGRVTLTVDTSSSTAYMELSRLRSDDTAVYYCARGTRAMHYWGQGTLVTVSSASTKGPSVFPLAPSSKSTSGGTAALGCLVKDYFPEPVTVSWNSGALTSGVHTFPAVLQSSGLYSLSSVVTVPSSSLGTQTYICNVNHKPSNTKVDKRVEPKSCDKTHTCPPCPAPEAAGGPSVFLFPPKPKDTLMISRTPEVTCVVVDVSHEDPEVKFNWYVDGVEVHNAKTKPREEQYNSTYRVVSVLTVLHQDWLNGKEYKCKVSNKARPAPIEKTISKAKGQPREPQVYTLPPSREEMTKNQVSLTCLVKGFYPSDIAVEWESNGQPENNYKTTPPVLDSDGSFFLYSKLTVDKSRWQQGNVFSCSVMHEALHNHYTQKSLSLSPG light: DIQMTQSPSSLSASVGDRVTITCRTSENIYNNLAWYQQKPGKSPKLLIYAATNLADGVPSRFSGSGSGTDYTLTISSLQPEDFATYYCQHFWGTPLTFGGGTKVEIKRTVAAPSVFIFPPSDEQLKSGTASVVCLLNNFYPREAKVQWKVDNALQSGNSQESVTEQDSKDSTYSLSSTLTLSKADYEKHKVYACEVTHQGLSSPVTKSFNRGEC

— patent publication US20200325237A1 (AVIDITY BIOSCIENCES, published 2020)
